The values that follow come from PMC12797016.

pKd: −log10 of the molar value. Where “and” joins values, the source holds several entries; their conditions need not be identical. Identical values can stand only once.

For test [1], the target named is LC8 (dynein light chain, DYNLL1/DYNLL2) (Homo sapiens) (UniProt P63167). Briefly: ITC. The note with it: cited from earlier work.
Test [2] shares this target. Nature of the test: ITC. The note with it: cited from earlier work. The source holds these as a separate data set.
Test [3] shares this target. Briefly: ITC. The note with it: cited from earlier work. This is another data set of the same source.
The target is the same in test [4]. Briefly: ITC. The note with it: cited from earlier work. This is another data set of the same source.
Test [5] has the same target. Briefly: ITC. The note with it: cited from earlier work. The source holds these as a separate data set.
Test [6] shares this target. Briefly: ITC. The note with it: cited from earlier work. This is another data set of the same source.
For test [7] the target is unchanged. Briefly: ITC. The note with it: cited from earlier work. This is another data set of the same source.
Test [8] has the same target. Briefly: ITC. The note with it: cited from earlier work. The source holds these as a separate data set.
Test [9] has the same target. Nature of the test: ITC. The note with it: cited from earlier work. The source holds these as a separate data set.
Test [10] shares this target. Briefly: ITC. The note with it: cited from earlier work. The source holds these as a separate data set.
Test [11] shares this target. Briefly: ITC. The note with it: cited from earlier work. The source holds these as a separate data set.
Test [12] has the same target. Nature of the test: ITC. The note with it: cited from earlier work. The source holds these as a separate data set.
For test [13] the target is unchanged. Nature of the test: ITC. The note with it: cited from earlier work. The source holds these as a separate data set.
For test [14] the target is unchanged. Nature of the test: ITC. The note with it: cited from earlier work. The source holds these as a separate data set.
Test [15] shares this target. Nature of the test: ITC. The note with it: cited from earlier work. The source holds these as a separate data set.
The target is the same in test [16]. Nature of the test: ITC. The note with it: cited from earlier work. This is another data set of the same source.
Test [17] has the same target. Briefly: ITC. The note with it: cited from earlier work. The source holds these as a separate data set.
Test [18] has the same target. Briefly: ITC. The note with it: cited from earlier work. This is another data set of the same source.
For test [19], the target named is 6xHis-tagged rGKAP_(655–711) (Rattus norvegicus) (UniProt P97836). Briefly: BLI; 6xHis-tagged rGKAP655-711 immobilised on Ni-NTA biosensors (5 ug/mL, 90 s); LC8 dimers 3.125-50 uM, association and dissociation 90 s each; kinetic buffer 50 mM sodium phosphate, 20 mM NaCl, pH 6.0, 20 mM imidazole, 0.1% BSA, 0.02% Tween 20, 0.02% NaN3; sensors hydrated at 25 °C; global fit; BLItz. For orientation: Biolayer interferometry detects binding as a change in optical thickness at a sensor tip.

Test [20] has as its target rGKAP_(655–711), LC8-binding segment of Rattus norvegicus guanylate kinase-associated protein (GKAP), His tag removed (Rattus norvegicus) (UniProt P97836). Briefly: dynamic light scattering; particle size of GKAP, LC8 dimer and their complex at 20 °C; W130i DLS device.
The target in test [21] is LC8 (dynein light chain, DYNLL1/DYNLL2) (Homo sapiens) (UniProt P63167). Briefly: ITC. The note with it: cited from earlier work. The source holds these as a separate data set.
Test [22] shares this target. Nature of the test: ITC. The note with it: cited from earlier work. The source holds these as a separate data set.

Chain of UniProt P63167 (P63167 whole entry): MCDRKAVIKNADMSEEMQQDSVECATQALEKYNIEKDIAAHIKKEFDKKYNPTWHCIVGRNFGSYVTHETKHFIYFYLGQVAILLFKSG

As a reminder, the pKd is the Kd on a negative log10 scale, so that one unit is a factor of ten. As for 53BP1, the results for the negative-log Kd (pKd) in test [1], in [2] and in test [3] were 6.21, 5.28 and 6.00, respectively. Take AKAP9: the pKd in test [3] was 4.91.

On to ALMS1, for which the negative logarithm of the Kd (pKd) in test [3] is 4.72. Take AMOT: the pKd in test [3] is 5.92.

Regarding AMOTL1, the pKd in test [3] was 5.81.

For the substance AMOTL2, in [3], the negative logarithm of the Kd (pKd) is 5.70.

As for ASCIZ, the pKd was 4.85 in test [4]; 5.03 in [5]; 5.15 in [6]; 4.96 in [7]; 4.82 in test [8]; 4.44 in [9]. For the same substance, the pKd in test [10] was 4.82; in [11] it was 5.00; in test [3], 4.70. Regarding Bim, the negative-log Kd (pKd) in test [3] was 6.28. For the substance CDK5RAP2, the pKd in test [3] was 4.90. As to CEP152, the pKd in test [3] was 5.63.

Take CFAP91: the pKd in [3] is 6.26.

With EML3, the negative-log Kd (pKd) in test [3] was 7.30. Regarding GKAP, in test [3], the pKd is 5.62. As for IC, the negative logarithm of the Kd (pKd) in test [3] was 5.52. Regarding IQUB, the negative-log Kd (pKd) in [3] was 5.45.

As to Kib1, the pKd in [3] is 6.35. Consider Kib2, for which the negative logarithm of the Kd (pKd) in [3] is 5.40. For the substance L-MAG, in [3], the negative logarithm of the Kd (pKd) was 5.14. With LCA5, in test [3], the pKd is 5.59 and 5.09. Regarding MAP4, the pKd in test [3] was 5.35. As for Myosin Va, the pKd in test [3] is 5.05.

With NEK9, the pKd in [3] was 6.80. Take NUP159: the negative-log Kd (pKd) in [3] was 6.00. For OFD1, the negative-log Kd (pKd) in [3] is 4.90 and 4.89. Regarding Pak1, in test [3], the negative-log Kd (pKd) was 4.37. For Restv, the negative-log Kd (pKd) in [3] is 4.21. On to SAO-1, for which the pKd in test [3] and in test [12] was 6.30 each time. On to Sudv, for which the pKd in test [3] is 5.19. Take Swa: the negative-log Kd (pKd) in [3] was 6.21.

Take WWC1: the pKd in test [3] is 5.40; in test [13], 6.35.

WWC2: the pKd in [14] was 4.75; in test [3], 4.49. In the case of WWC3, the figures for the negative logarithm of the Kd (pKd) in [15] and in [3] were 5.46 and 5.27, respectively.

On to ana2, for which the negative-log Kd (pKd) in [3] is 4.89; in test [16], 5.94. Consider bmf, for which, in test [3], the pKd is 6.10. dyn intermediate chain (ICTL): the pKd in test [17] is 5.10; in test [18] it was 5.10; in test [3], 6.30. A word on the koff: it is the first-order rate constant of dissociation. Low values mean a long-lived complex, high ones a short-lived complex. By kon is commonly meant the rate constant with which the complex forms. A high value points to faster complex formation. In the case of “dynein light chain LC8 (DYNLL2, DLC2), Rattus norvegicus, dimer (natural protein)”, in [19], the pKd is 6.54, the koff worked out at 0.0025 s⁻¹ and the kon was 8800 M⁻¹ s⁻¹. This substance also returned a stoichiometry N (LC8 dimers per GKAP segment (2 : 2)) in test [20] of 1. On to myosin Va, for which the pKd in test [3] is 5.05. As for nNOS, the negative logarithm of the Kd (pKd) in [3] was 5.27 and 5.15.

Regarding protein panoramix, the values for the pKd in test [21] and in test [3] were 7.12 and 6.85, respectively. As for vp35 virus, the negative-log Kd (pKd) in test [22] and in [3] was 5.41 in each case.
